Substitutions are numbered along the chain they refer to.
Experiments:
Details in all cases: protein: recombinant; chain copies: 2; label: Alexa Fluor647 (EMSA); biotin (QCM); blunt; self-complementary palindrome, 2 copies
PZ F219V = biological target: T1, PZ F219V (Vaucheria frigida? (VfAUREO1), UniProt A8QW55 113-348, C162S;C182S;F219V); assay: EMSA; QCM; dark state; low EC50; EMSA: 5% polyacrylamide gel, 25 C, dark or blue light 5 W/m2; QCM: 27 MHz, QCM buffer, 25 C; buffer, salt and pH not given (earlier papers cited); EC50 values (nM, per monomer) only in figures
T1 sequence: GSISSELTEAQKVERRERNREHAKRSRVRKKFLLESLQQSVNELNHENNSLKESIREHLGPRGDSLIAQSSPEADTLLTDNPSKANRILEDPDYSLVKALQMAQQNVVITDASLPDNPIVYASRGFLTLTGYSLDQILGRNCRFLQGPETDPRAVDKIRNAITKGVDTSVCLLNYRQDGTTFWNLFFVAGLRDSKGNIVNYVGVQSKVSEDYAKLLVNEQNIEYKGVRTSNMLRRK

PZ V316A = biological target: T2, PZ V316A (Vaucheria frigida? (VfAUREO1), UniProt A8QW55 113-348, C162S;C182S;V316A); assay: EMSA; QCM; dark state; altered EC50; EMSA: 5% polyacrylamide gel, 25 C, dark or blue light 5 W/m2; QCM: 27 MHz, QCM buffer, 25 C; buffer, salt and pH not given (earlier papers cited); EC50 values (nM, per monomer) only in figures
T2 sequence: T1 sequence with V107F, V204A

PZ V314A = biological target: T3, PZ V314A (Vaucheria frigida? (VfAUREO1), UniProt A8QW55 113-348, C162S;C182S;V314A); assay: as above
T3 sequence: T1 sequence with V107F, V202A

PZ L201A = biological target: T4, PZ L201A (Vaucheria frigida? (VfAUREO1), UniProt A8QW55 113-348, C162S;C182S;L201A); assay: EMSA; QCM; dark state; EC50 lower than wtPZ; EMSA: 5% polyacrylamide gel, 25 C, dark or blue light 5 W/m2; QCM: 27 MHz, QCM buffer, 25 C; buffer, salt and pH not given (earlier papers cited); EC50 values (nM, per monomer) only in figures
T4 sequence: T1 sequence with L89A, V107F

PZ L208A = biological target: T5, PZ L208A (Vaucheria frigida? (VfAUREO1), UniProt A8QW55 113-348, C162S;C182S;L208A); assay: as above
T5 sequence: T1 sequence with L96A, V107F

[1] = biological target: T6, PZ L201A/L208A/L212A (triple) (Vaucheria frigida? (VfAUREO1), UniProt A8QW55 113-348, C162S;C182S;L201A;L208A;L212A); assay: as above
T6 sequence: T1 sequence with L89A, L96A, L100A, V107F

PZ V314I = biological target: T7, PZ V314I (Vaucheria frigida? (VfAUREO1), UniProt A8QW55 113-348, C162S;C182S;V314I); assay: EMSA; QCM; dark state; EC50 similar to light; EMSA: 5% polyacrylamide gel, 25 C, dark or blue light 5 W/m2; QCM: 27 MHz, QCM buffer, 25 C; buffer, salt and pH not given (earlier papers cited); EC50 values (nM, per monomer) only in figures
T7 sequence: T1 sequence with V107F, V202I

Measured: binding result

B1: dsApo (dsDNA)
DNA 1: GCTGTCTGACGTCAGACAGC
DNA 2: GCTGTCTGACGTCAGACAGC
binds: all assays above

— paper PMC8184817, “Transmission of light signals from the light-oxygen-voltage core via the hydrophobic region of the β-sheet surface in aureochrome-1” (Scientific Reports, 2021)
